PMC4454200

Biological target: Full-length mouse melanocyte-type myosin-5a (Myo5a-FL) (mouse) (UniProt Q99104)
Sequence (Q99104 whole entry): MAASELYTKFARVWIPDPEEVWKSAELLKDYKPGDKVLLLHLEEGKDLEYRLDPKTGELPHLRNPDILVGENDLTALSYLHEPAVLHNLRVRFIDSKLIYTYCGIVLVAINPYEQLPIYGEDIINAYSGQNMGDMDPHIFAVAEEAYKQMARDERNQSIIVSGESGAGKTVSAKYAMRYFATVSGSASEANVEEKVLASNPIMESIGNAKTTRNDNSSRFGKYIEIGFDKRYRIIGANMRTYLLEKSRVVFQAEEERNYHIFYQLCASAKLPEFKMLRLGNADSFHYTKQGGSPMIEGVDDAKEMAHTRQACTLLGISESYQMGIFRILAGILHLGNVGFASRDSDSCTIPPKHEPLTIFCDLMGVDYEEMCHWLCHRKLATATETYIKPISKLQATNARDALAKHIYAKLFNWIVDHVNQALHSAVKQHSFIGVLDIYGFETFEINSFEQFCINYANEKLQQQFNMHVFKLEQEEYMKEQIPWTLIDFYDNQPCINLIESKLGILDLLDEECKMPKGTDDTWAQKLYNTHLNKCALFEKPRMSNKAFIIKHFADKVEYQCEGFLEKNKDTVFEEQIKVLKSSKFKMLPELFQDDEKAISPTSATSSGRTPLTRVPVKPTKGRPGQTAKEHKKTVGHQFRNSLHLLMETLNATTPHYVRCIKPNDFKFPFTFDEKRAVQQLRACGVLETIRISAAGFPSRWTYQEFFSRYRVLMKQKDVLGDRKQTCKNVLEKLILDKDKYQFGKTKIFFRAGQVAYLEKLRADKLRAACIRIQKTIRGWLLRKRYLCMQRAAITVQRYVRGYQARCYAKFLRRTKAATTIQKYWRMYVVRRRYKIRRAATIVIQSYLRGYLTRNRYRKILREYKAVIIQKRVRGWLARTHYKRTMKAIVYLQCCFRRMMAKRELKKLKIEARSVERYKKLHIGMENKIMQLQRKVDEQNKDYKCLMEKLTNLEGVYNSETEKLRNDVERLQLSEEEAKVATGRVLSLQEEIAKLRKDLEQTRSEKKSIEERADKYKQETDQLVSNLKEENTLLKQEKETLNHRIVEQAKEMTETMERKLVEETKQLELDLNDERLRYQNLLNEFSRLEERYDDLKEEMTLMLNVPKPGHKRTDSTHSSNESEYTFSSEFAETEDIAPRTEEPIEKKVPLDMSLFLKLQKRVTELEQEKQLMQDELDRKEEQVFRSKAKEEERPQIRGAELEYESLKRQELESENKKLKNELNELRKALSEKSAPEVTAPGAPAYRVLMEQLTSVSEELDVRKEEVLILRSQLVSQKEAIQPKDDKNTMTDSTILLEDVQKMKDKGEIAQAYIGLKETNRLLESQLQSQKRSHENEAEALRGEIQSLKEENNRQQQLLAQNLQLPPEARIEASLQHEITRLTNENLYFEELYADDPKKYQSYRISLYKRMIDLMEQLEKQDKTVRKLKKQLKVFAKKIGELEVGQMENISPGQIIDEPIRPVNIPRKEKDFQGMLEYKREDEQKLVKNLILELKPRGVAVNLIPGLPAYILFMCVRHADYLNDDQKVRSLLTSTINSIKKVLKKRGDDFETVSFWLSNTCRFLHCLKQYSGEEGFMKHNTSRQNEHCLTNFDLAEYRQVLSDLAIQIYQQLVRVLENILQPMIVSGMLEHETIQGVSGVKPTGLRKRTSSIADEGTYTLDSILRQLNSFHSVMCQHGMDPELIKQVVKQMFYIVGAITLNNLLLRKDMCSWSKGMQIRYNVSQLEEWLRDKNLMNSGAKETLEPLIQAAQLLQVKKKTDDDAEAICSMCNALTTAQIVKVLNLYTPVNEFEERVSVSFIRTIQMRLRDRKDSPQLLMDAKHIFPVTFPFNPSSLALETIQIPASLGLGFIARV

stimulation of the actin-activated ATPase activity of Myo5a-FL by Mlph-GTBDP (EGTA conditions, 40 uM actin), hyperbolic fit: apparent Kd: 19.8 µM
B1: Mlph-GTBDP, 26-residue Myo5a-GTD binding peptide of melanophilin with a C-terminal tyrosine (peptide)
peptide: RDQPLNSKKKKRLLSFRDVDFEEDSDY
